Experimental data as given in PMC3561992.

T1: AtCyp59 full-length (Arabidopsis thaliana, UniProt Q6Q151 1-506)
T1 sequence: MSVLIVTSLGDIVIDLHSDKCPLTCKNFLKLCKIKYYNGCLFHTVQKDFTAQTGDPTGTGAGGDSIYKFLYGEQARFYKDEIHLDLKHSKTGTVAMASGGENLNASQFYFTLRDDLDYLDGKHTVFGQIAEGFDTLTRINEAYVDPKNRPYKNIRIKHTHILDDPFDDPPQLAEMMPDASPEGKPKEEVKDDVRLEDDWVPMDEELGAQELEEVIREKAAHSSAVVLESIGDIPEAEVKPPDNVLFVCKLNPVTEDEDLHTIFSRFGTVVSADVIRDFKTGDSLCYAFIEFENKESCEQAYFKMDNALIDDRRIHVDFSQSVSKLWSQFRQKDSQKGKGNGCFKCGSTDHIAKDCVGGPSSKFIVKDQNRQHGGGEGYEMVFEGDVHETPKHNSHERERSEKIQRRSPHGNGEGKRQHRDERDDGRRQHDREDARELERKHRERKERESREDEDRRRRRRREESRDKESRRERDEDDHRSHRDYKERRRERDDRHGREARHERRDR


Molecular target: T1, AtCyp59 full-length
Experiment: EMSA

Kd, 120 ± 25 nM:
GCUGCCG (ssRNA)
GUGGCCG (ssRNA)
GGAGCCA (ssRNA)
GCGGCCG (ssRNA)
GCCGCCA (ssRNA)
GUCGCCA (ssRNA)
GCCGCCG (ssRNA)
GAUGCCG (ssRNA)
GACGCCA (ssRNA)
GUGGCCA (ssRNA)
GAUGCCA (ssRNA)
GUCGCCG (ssRNA)
GUAGCCA (ssRNA)
GUUGCCG (ssRNA)
GCGGCCA (ssRNA)
GGUGCCG (ssRNA)
GUAGCCG (ssRNA)
